Source: patent publication US5908756

Biological target: neuronal nitric oxide synthase (nNOS) expressed in transfected HEK 293 cells (rat)

thrombin-cleaved PIN-1, sequence (P61273 whole entry): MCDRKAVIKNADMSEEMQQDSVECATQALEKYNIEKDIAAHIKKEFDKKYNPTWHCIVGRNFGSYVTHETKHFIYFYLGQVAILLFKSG

Row | Substance | 50% inhibition of NOS activity [µM]
1 | glutathione-S-transferase (GST)-PIN-1 fusion protein | 1
2 | thrombin-cleaved PIN-1 | 5000
